Laboratory results from PMC10873366.

Tests used:
[1] = target: Sox2 N-terminal domain and DBD (N-DBD); test: NMR; residue Ala 287; details: domain or fragment; Limits are not printed. They are inferred from the C-IDR label position 120, the +9/-9 charge count, and 180 observable HSQC peaks (198 residues minus 17 Pro and the N-terminal residue). The NMR sample was 15N-labelled or unlabelled. The His6-SUMO tag was removed. The smFRET version carries dyes at 120 and 265. Limits are not printed. They are inferred from 109 expected HSQC peaks (119 residues m); modification not given
Sox2 N-terminal domain and DBD (N-DBD), sequence (chain, as listed by the source): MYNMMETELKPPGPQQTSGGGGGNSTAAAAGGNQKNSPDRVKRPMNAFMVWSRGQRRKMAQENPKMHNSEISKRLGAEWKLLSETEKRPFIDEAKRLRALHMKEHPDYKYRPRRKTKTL

[2] = target: Sox2 N-terminal domain and DBD (N-DBD); test: NMR; residue Ser 290; details: domain or fragment; Limits are not printed. They are inferred from the C-IDR label position 120, the +9/-9 charge count, and 180 observable HSQC peaks (198 residues minus 17 Pro and the N-terminal residue). The NMR sample was 15N-labelled or unlabelled. The His6-SUMO tag was removed. The smFRET version carries dyes at 120 and 265. Limits are not printed. They are inferred from 109 expected HSQC peaks (119 residues m); modification not given

- Kd [1]: 93 µM
- Kd [2]: 74 µM
B1: Sox2 C-terminal intrinsically disordered region (C-IDR) (protein)
chain: MKKDKYTLPGGLLAPGGNSMASGVGVGAGLGAGVNQRMDSYAHMNGWSNGSYSMMQDQLGYPQHPGLNAHGAAQMQPMHRYDVSALQYNSMTSSQTYMNGSPTYSMSYSQQGTPGMALGSMGSVVKSEASSSPPVVTSSSHSRAPCQAGDLRDMISMYLPGAEVPEPAAPSRLHMSQHYQSGPVPGTAINGTLPLSHM
